Data on two molecules can be found in US20130225503A1, “TEX14 PEPTIDES AS NOVEL ANTITUMOR AGENTS” (Baylor Licnensing Group, priority 2009, published 2013).

Data set [1] deals with T1, CEP55 (C1) hinge region (Mus musculus, UniProt Q8BT07).
T1 construct: an 80-amino-acid fragment of CEP55 (C1) that contains the hinge region; expressed in transfected cells; host or cells: yeast (Matchmaker Two-Hybrid System 3, Clontech)
T1 sequence (Q8BT07 157-235 limits assumed): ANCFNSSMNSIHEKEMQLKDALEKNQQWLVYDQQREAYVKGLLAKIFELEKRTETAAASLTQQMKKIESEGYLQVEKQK
In words: Yeast two-hybrid assay of truncated TEX14 with the CEP55 hinge fragment C1. Conditions: 80-amino-acid fragment of CEP55 containing the hinge region; FIG. 3A to C. Type of data set: binding. The procedure:
(§1) Protein-protein interactions were evaluated by using the Matchmaker Two-Hybrid System 3 (Clontech) as described previously (10). Mouse full-length TEX14 and MLKP1 were previously subcloned into the Matchmaker GAL4 two-hybrid pGBKT7 and pGADT7 vectors (10). The constructs of full-length mouse and human CEP55, human TEX14, truncated mouse CEP55-C1, and truncated mouse TEX14-T1, T2, T1[…]T2, T3, T4, and T4-C were made by using the Matchmaker GAL4 two-hybrid pGBKT7 bait vector and pGADT7 prey vectors. Some Y2H interactions were examined with an oxygen biosensor assay (Clontech PT3584-1) that measured the fluorescence emitted by an oxygen-sensing platform that detects GAL4.
To determine the relevance of this GPPX3Y motif as it relates to the interaction of TEX14 with CEP55, we performed yeast two-hybrid assays with mouse TEX14 amino acids 756 to 815 that contain the GPPX3Y motif (FIG. 3A). These 60 amino acids interacted with full-length CEP55 (FIGS. 3B and C). Conversely, an 80-amino-acid fragment of CEP55 (C1) that contains the hinge region interacted with full-length TEX14, the C terminus (T3), and GPPX3Y-containing fragment (T4) but not a shorter sequence that lacked the GPPX3Y motif (T4-C) (FIG. 3A to C). Thus, similar GPPX3Y-containing regions of TEX14, ALIX, and TSG101 interact with the hinge region of CEP55.

Data set [2] deals with the molecule itself. Kind of data set: yeast two-hybrid, full-length proteins, oxygen biosensor and selection plates. The procedure: (A) Immunoprecipitation (IP) of FLAG-TEX14 and/or MYC-CEP55 from HEK293T cells, followed by Western blot analysis with the antibodies as shown. Immunoprecipitation of protein G (lanes G) is the control. (B) Yeast two-hybrid analyses using vectors encoding full-length mouse TEX14, MKLP1, CEP55, and positive and negative controls. The relative ratios of TEX14-TEX14, TEX14-MKLP1, and TEX14-CEP55 interactions were determined by using an oxygen-biosensor system. (C) Yeast two-hybrid interactions of mouse and human full-length TEX14 and CEP55. (a) Yeast were stably transformed with vectors and plated for yeast two-hybrid analysis as depicted. SV40 T antigen with p53 and SV40 T antigen with lamin C were used as positive and negative controls, respectively. (b) Interactions between the two-hybrid proteins are evident by colony growth and blue color on selection plates.
as §1
Since both CEP55 and TEX14 interact with MKLP1 (10, 22), it was determined whether CEP55 and TEX14 are components of the intercellular bridge as direct or indirect interactors. The inventors first overexpressed full-length FLAG-TEX14 and MYC-CEP55 constructs in HEK293T cells (FIG. 2A). […] Likewise, when the inventors immunoprecipitate with anti-MYC antibody, they immunoprecipitate both MYC-CEP55 and FLAG-TEX14.

On to “T4: GPPX3Y-containing fragment of mouse TEX14, amino acids 756 to 815 (EVEELEWAQKELDSQCSSLRDASLKFANAKFQPAVGPPSLAYLPPVMQLPGLKQPENGGT; UniProt Q7M6U3 756-815, looked up, fragment)”, for which, in data set [1], the “yeast two-hybrid interaction with CEP55 fragment C1” value is “interacted”.

B1: full-length mouse TEX14 (other, UniProt Q7M6U3 1-1450, looked up)
chain: MSRGAPFPVPCPVLLGTFTDDSLEAQLHEYAKQGNCVKLKKILKKGVCVDAVNTQGQSALFVAALLGHVKLVDVLVDYGSDPNHRCFDGSTPVHAAAFSGNQWILSKLLTAGGDLRLHDEKGRNPQAWALTAGKDRSTQMVEFMQRCTSHMKAIIQGFSYDLLKKIDSPQRLIGSPPWFGSLIQGSPNSSPNRQLKPGIISAQNIYSFGFGKFYLTSGMQLTYPGSLPVIGEKEVVQADDEPTFSFFSGPYMVMTNLVWNRSRVTVKELNLPTRPHCSRLRLADLLIAEQEHSSNLRHPNLLQLMAVCLSRDLEKIRLVYERITVGTLFSVLHERRSQFPVLHMEVIVHLLLQVADALIYLHSRGFIHRSLSSYAVHIVSAGEARLTNLEYLTESQDSGAHRNVTRMPLPTQLYNWAAPEVVLQKAATVKSDIYSFSVIIQEILTDSIPWNGLDGSLVKETIALGNYLEADVRLPEPYYDIVKSGIHAKQKNRTMNLQDIRYILKNDLKEFIGAQKTQPTESPRGQSYEPHPDVNICLGLTSEYQKDPPDLDIKELKEMGSQPHSPTDHSFLTVKPTLAPQTLDSSLSAQKPDNANVPSPPAACLAEEVRSPTASQDSLCSFEINEIYSGCLTLGTDKEEECLGTAASPEGDRPNQGDELPSLEEELDKMERELHCFCEEDKSISEVDTDLLFEDDDWQSDSLGSLNLPEPTREAKGKTSSWSKTDEYVSKCVLNLKISQVMMQQSAEWLRKLEQEVEELEWAQKELDSQCSSLRDASLKFANAKFQPAVGPPSLAYLPPVMQLPGLKQPENGGTWLTLARSPGNEREFQEGHFSKKPEKLSACGWKPFTQVSEESRGDCSELNNQLPTLRGPGKQSTGEQLPSTQEARESLEKNTNQNSRSMASVSSEIYATKSRNNEDNGEAHLKWRLAVKEMAEKAVSGQLLLPPWNPQSSAPFESKVENESTPLPRPPIRGPESTEWQHILEYQRENDEPKGNTKFGKMDNSDCDKNKHSRWTGLQRFTGIRYPFFRNHEQPEQNEASQASCDTSVGTEKFYSTSSPIGDDFERFQDSFAQRQGYVEENFQIREIFEKNAEILTKPQFQAIQCAEDKQDETLGETPKELKEKNTSLTDIQDLSSITYDQDGYFKETSYKTPKLKHAPTSASTPLSPESISSAASHYEDCLENTTFHVKRGSTFCWNGQEAMRTLSAKFTTVRERAKSLESLLASSKSLPAKLTDSKRLCMLSETGSSNVSAAFVTSTHATKRKSLPRELAEATSQQHLDELPPPAQELLDEIEQLKQQQVSSLASHENTARDLSVTNKDKKHLEEQETNSSKDSSFLSSREIQDLEDTERAHSSLDEDLERFLQSPEENTALLDPTKGSTREKKNKDQDVVEQKRKKKESIKPERRESDSSLGTLEEDELKPCFWKRLGWSEPSRIIVLDQSDLSD
notes: whole, on cells; In the yeast two-hybrid assay it stood as a fusion with a GAL4 domain (pGBKT7 bait or pGADT7 prey vector)
On to B1, for which the binding result in data set [2] is on record as “binds”.
